Measurements: the supplement of paper PMC10724198
± gives the standard deviation of the averaged measurements.

test system: Saccharomyces cerevisiae; assay: protein stability index of tFT-peptide fusion (C-terminal peptide) (PSI (0-1 scale)); higher = more stable (slower turnover); conditions: genetic background: wild type; temperature: 30 C
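Further: PSI is a weighted mean of sequencing reads over stability bins, variants kept only with over 10 reads, mCherry proximal and sfGFP distal, peptide attached via GGGS linker.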

VRSPLEHTVPFS and LGLEALRETSQP are within error of each other in protein stability index: 0.655 ± 0.057 for the first, 0.6448 ± 0.005 for the second.

HHTDSLRPTAPH and PDGPSIVVPGQG are within error of each other in protein stability index: 0.73 ± 0.054 for the first, 0.678 ± 0.017 for the second.

SPLSLPSPATFP and PRLPPTDHAGAL are within error of each other in protein stability index: 0.688 ± 0.05 for the first, 0.675 ± 0.04 for the second.

First: SRVYRSCKNVKR
Second: EKGSIYVVQYGK
The protein stability index of the first is higher: 0.7383 ± 0.0069 for the first, 0.683 ± 0.022 for the second.

First: TETFARTATRRP
Second: CVRARQLTLCIP
The protein stability index of the first is higher: 0.587 ± 0.022 for the first, 0.5505 ± 0.0036 for the second.

RPTRPCSTPTAP and FFSPPLPPAPLT are within error of each other in protein stability index: 0.78 ± 0.012 for the first, 0.775 ± 0.057 for the second.

EFPRHDLDCSLV and GWDSGHLVVMEI are within error of each other in protein stability index: 0.7095 ± 0.00082 for the first, 0.715 ± 0.033 for the second.

PRAPHHRIPEDL and ADEGRGVGGVGG are within error of each other in protein stability index: 0.733 ± 0.097 for the first, 0.699 ± 0.061 for the second.

RVGGGGGPSGVV and LPSHAPRRPTFP are within error of each other in protein stability index: 0.751 ± 0.029 for the first, 0.7403 ± 0.0056 for the second.

RHPSVLPLSILL and HGKGLKEKRVEG are within error of each other in protein stability index: 0.653 ± 0.054 for the first, 0.672 ± 0.041 for the second.

First: PSTLPSHRVPLK
Second: RIRRERRIGLKV
The protein stability index of the first is higher: 0.68 ± 0.041 for the first, 0.559 ± 0.0092 for the second.

APPPPAPPPLRP and SLPPPSSHPPPL are within error of each other in protein stability index: 0.724 ± 0.05 for the first, 0.7 ± 0.09 for the second.

PPSHYPFTPADP and PLPLSSSLHSQR are within error of each other in protein stability index: 0.728 ± 0.046 for the first, 0.702 ± 0.0084 for the second.

RIQIKIKRTKNK and GGSGPSGSPRRR are within error of each other in protein stability index: 0.638 ± 0.11 for the first, 0.727 ± 0.054 for the second.

GVLPYRYRGLVL and PTSPTTSPDHKH are within error of each other in protein stability index: 0.64 ± 0.16 for the first, 0.684 ± 0.15 for the second.

PTQSPSTIPPSP and RISGDVNCLSPR are within error of each other in protein stability index: 0.763 ± 0.11 for the first, 0.718 ± 0.066 for the second.

VRHSPVVPANRP and PPLPPPPPDFSP are within error of each other in protein stability index: 0.698 ± 0.094 for the first, 0.761 ± 0.18 for the second.

VDTGMAAGLTFG and PTRPPPTSHTPY are the same in protein stability index: 0.685 ± 0.034 for the first, 0.685 ± 0.02 for the second.

PPPPAHSYHPPS and PPSPPAPPAPPH are within error of each other in protein stability index: 0.714 ± 0.16 for the first, 0.692 ± 0.038 for the second.

First: FGESPWARVGGG
Second: VRNASEDSVGQL
The protein stability index of the first is lower: 0.5749 ± 0.005 for the first, 0.708 ± 0.046 for the second.

SQPRRELGRPRG and SGSGLRIIRSSP are within error of each other in protein stability index: 0.662 ± 0.022 for the first, 0.657 ± 0.011 for the second.

TSASLFPLGPFR and SYRWAFPGVFSG are within error of each other in protein stability index: 0.666 ± 0.02 for the first, 0.678 ± 0.031 for the second.

LPPFPLPPPLLS and FVRPPHTTHPHP are within error of each other in protein stability index: 0.68 ± 0.1 for the first, 0.681 ± 0.041 for the second.

SRIFLFPTPTLF and PSSSSPPPTFSL are within error of each other in protein stability index: 0.651 ± 0.096 for the first, 0.625 ± 0.066 for the second.

Going from CYIGGEVEFVGW to CLRTVGIAQSSG, the protein stability index falls from 0.727 ± 0.0094 to 0.7019 ± 0.00094.

GRRAWWQQPDDS and KTTVENEQRKEK are within error of each other in protein stability index: 0.774 ± 0.099 for the first, 0.698 ± 0.079 for the second.

VRGGGRRACVVG and KGLLSITLRNLD are within error of each other in protein stability index: 0.607 ± 0.05 for the first, 0.63 ± 0.049 for the second.

First: EGGLDPFRVIMG
Second: GRPRERWGVGVV
The protein stability index of the first is lower: 0.643 ± 0.029 for the first, 0.6865 ± 0.0023 for the second.

VTFTERIAIEWD and LLSYLRNCCAEH are within error of each other in protein stability index: 0.703 ± 0.054 for the first, 0.687 ± 0.035 for the second.

SPPPLPSPSPPP and EERNNQRKKRKG are within error of each other in protein stability index: 0.687 ± 0.044 for the first, 0.709 ± 0.038 for the second.

FNIPYLVQATGD and RYHQFSFQSNKS are within error of each other in protein stability index: 0.676 ± 0.09 for the first, 0.764 ± 0.072 for the second.

GWAVGGGGGRGR and WPFMGLSAGCLR are within error of each other in protein stability index: 0.617 ± 0.057 for the first, 0.691 ± 0.028 for the second.

LPRASPKARTLR and SPLSSSDGSAAI are within error of each other in protein stability index: 0.714 ± 0.075 for the first, 0.73 ± 0.022 for the second.

LSISPSPPPPLW and EYVDVDVQDCRG are within error of each other in protein stability index: 0.706 ± 0.052 for the first, 0.692 ± 0.035 for the second.

ASDMHRTNKPRE and AGDTCRLRIHVD are within error of each other in protein stability index: 0.671 ± 0.085 for the first, 0.728 ± 0.021 for the second.

DILLPFQFLDDF and LQIFRSRCFGGL are within error of each other in protein stability index: 0.6927 ± 0.00039 for the first, 0.722 ± 0.13 for the second.

GGSCGFGLGAGG and RGGGGPGWGSRG are within error of each other in protein stability index: 0.665 ± 0.041 for the first, 0.684 ± 0.025 for the second.

Going from GGDAGGVFSRLC to VPSRTVTGTLPA, the protein stability index rises from 0.632 ± 0.0096 to 0.681 ± 0.026.

PPAHPPPRLHPP and DPLSPLPPPPPP are within error of each other in protein stability index: 0.541 ± 0.018 for the first, 0.635 ± 0.14 for the second.

LLEKGHTRGLCF and PVWDGTAKLSVI are within error of each other in protein stability index: 0.663 ± 0.017 for the first, 0.65 ± 0.026 for the second.

In the case of CGRGCTRGVNLG, the protein stability index is reported as 0.689 ± 0.069.
